Laboratory results: patent US5786328
pKi: −log10 of the molar value.

What was measured:
[1] = target: Human Factor XIa (human) (UniProt P03951)
[2] = target: Human plasma kallikrein (human) (UniProt P03952)
[3] = target: tissue factor-Factor VIIa (human) (UniProt P13726)
[4] = target: Human Factor XIa (human) (UniProt P03951); remark: listed apart in the source
[5] = target: Human Factor XIa (human) (UniProt P03951); assay: inhibition of FXIa, chromogenic substrate, fit for tight-binding inhibitors (apparent Ki*)
[6] = target: Human plasma kallikrein (human) (UniProt P03952); assay: inhibition of human plasma kallikrein, substrate S2302, fit for tight-binding inhibitors (apparent Ki*)

## APPI (Alzheimer's amyloid β-protein precursor inhibitor)
[1]
  fraction of remaining proteolytic activity with 100 nM inhibitor (fraction of uninhibited rate): 0.03
[2]
  fraction of remaining proteolytic activity with 100 nM inhibitor (fraction of uninhibited rate): 0.81
[3]
  fraction of remaining proteolytic activity with 100 nM inhibitor (fraction of uninhibited rate): 0.6
[4]
  fold prolongation of the clotting time of normal human plasma, APTT assay: 2.8 fold
[5]
  pKi: 8.57
[6]
  pKi: 6.47
